US20140274782A1, “AFFINITY REAGENTS AND METHODS FOR DETECTION, PURIFICATION, AND PROTEOMIC ANALYSIS OF METHYLATED PROTEINS” (The Board of Trustees of the Leland Stanford Junior …, priority 2013, published 2014)

Columns and labels:
[1] = target: C12orf23, G9a-methylated (human) (UniProt Q8WUH6); assay: ProtoArray methylated with G9a SET domain
[2] = target: TEAD4, G9a-methylated (human) (UniProt Q15561); assay: ProtoArray methylated with G9a SET domain
[3] = target: RTN1, G9a-methylated (human) (UniProt Q16799); assay: ProtoArray methylated with G9a SET domain
[4] = target: UBE2D2, G9a-methylated (human) (UniProt P62837); assay: ProtoArray methylated with G9a SET domain
[5] = target: LYRM7, G9a-methylated (human) (UniProt Q5U5X0); assay: ProtoArray methylated with G9a SET domain
LYRM7, G9a-methylated (human), sequence (Q5U5X0 whole entry, the tested form may be a part): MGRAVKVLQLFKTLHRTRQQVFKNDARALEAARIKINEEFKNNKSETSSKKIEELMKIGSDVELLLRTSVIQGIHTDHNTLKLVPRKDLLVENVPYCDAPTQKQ

[6] = target: SMAP1, G9a-methylated (human) (UniProt Q8IYB5); assay: ProtoArray methylated with G9a SET domain
[7] = target: ZNF695, G9a-methylated (human) (UniProt Q8IW36); assay: ProtoArray methylated with G9a SET domain
[8] = target: CAB39L, G9a-methylated (human) (UniProt Q9H9S4); assay: ProtoArray methylated with G9a SET domain
[9] = target: SMYD5, G9a-methylated (human) (UniProt Q6GMV2); assay: ProtoArray methylated with G9a SET domain
SMYD5, G9a-methylated (human), sequence (Q6GMV2 whole entry, the tested form may be a part): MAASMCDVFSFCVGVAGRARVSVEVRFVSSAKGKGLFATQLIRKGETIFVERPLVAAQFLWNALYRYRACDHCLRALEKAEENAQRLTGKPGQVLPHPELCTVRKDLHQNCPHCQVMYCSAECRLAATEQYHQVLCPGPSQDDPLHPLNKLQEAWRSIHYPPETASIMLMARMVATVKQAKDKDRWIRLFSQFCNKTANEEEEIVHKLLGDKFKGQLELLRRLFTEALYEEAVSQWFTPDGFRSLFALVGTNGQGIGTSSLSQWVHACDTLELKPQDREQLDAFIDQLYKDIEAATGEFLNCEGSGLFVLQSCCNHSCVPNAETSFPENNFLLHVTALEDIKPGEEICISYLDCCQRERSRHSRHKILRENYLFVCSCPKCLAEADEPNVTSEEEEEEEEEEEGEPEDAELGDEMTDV

[10] = target: CALN1, G9a-methylated (human) (UniProt Q9BXU9); assay: ProtoArray methylated with G9a SET domain
[11] = target: LTC4S, G9a-methylated (human) (UniProt Q16873); assay: ProtoArray methylated with G9a SET domain
[12] = target: PTCD2, G9a-methylated (human) (UniProt Q8WV60); assay: ProtoArray methylated with G9a SET domain
[13] = target: DGKA, G9a-methylated (human) (UniProt P23743); assay: ProtoArray methylated with G9a SET domain
DGKA, G9a-methylated (human), sequence (P23743 whole entry, the tested form may be a part): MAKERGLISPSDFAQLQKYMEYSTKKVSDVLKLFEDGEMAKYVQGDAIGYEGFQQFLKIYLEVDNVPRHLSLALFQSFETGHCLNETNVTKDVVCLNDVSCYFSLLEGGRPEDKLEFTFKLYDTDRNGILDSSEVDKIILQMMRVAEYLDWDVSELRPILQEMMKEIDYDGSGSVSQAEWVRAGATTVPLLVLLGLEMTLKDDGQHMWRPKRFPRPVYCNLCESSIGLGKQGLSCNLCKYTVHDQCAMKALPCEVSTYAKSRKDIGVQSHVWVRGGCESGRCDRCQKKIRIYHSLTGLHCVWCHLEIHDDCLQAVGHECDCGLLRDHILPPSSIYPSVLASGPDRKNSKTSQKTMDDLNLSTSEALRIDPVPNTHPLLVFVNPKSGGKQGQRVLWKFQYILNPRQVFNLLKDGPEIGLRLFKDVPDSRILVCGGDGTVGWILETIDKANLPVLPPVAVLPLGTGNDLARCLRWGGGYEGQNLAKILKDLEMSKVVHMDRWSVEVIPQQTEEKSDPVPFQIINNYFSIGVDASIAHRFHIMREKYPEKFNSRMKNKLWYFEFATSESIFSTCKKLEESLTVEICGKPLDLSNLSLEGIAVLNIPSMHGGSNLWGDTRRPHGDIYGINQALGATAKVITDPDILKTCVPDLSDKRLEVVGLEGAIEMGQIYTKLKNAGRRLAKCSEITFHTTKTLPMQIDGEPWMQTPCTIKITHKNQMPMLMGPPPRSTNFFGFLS

[14] = target: GHRL, G9a-methylated (human) (UniProt Q9UBU3); assay: ProtoArray methylated with G9a SET domain
GHRL, G9a-methylated (human), sequence (Q9UBU3 24-117 limits assumed): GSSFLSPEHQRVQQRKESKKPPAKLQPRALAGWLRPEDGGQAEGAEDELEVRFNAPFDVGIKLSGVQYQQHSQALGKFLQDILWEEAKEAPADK

[15] = target: GPR108, G9a-methylated (human) (UniProt Q9NPR9); assay: ProtoArray, G9a array SNR minus GST array SNR
GPR108, G9a-methylated (human), sequence (Q9NPR9 33-543 limits assumed): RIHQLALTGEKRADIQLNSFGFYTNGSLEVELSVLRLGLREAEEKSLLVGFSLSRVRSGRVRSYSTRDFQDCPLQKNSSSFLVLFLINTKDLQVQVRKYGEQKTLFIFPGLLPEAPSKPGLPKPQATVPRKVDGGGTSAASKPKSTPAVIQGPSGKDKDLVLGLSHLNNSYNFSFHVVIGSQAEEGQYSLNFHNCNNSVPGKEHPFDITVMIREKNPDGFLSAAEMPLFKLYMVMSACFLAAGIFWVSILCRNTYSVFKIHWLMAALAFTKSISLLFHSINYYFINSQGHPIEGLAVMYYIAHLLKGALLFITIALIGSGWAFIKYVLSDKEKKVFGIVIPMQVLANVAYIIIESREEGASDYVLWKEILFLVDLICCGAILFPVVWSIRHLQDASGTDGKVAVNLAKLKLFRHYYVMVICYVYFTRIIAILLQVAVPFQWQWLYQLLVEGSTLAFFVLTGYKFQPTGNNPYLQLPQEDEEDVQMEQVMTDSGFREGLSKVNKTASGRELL

[16] = target: TEAD4, G9a-methylated (human) (UniProt Q15561); assay: ProtoArray, G9a array SNR minus GST array SNR
[17] = target: SEC22B, G9a-methylated (human) (UniProt O75396); assay: ProtoArray, G9a array SNR minus GST array SNR
[18] = target: KCTD7, G9a-methylated (human) (UniProt Q96MP8); assay: ProtoArray, G9a array SNR minus GST array SNR
KCTD7, G9a-methylated (human), sequence (Q96MP8 whole entry): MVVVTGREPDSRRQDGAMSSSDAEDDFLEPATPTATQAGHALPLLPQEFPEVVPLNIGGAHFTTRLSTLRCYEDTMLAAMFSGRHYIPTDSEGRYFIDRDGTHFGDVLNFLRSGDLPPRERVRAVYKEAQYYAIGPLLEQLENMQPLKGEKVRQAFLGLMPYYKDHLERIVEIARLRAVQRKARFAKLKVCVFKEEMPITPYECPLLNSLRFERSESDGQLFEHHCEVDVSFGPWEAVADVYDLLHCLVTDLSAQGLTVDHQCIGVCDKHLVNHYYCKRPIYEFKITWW

[19] = target: GPX1, G9a-methylated (human) (UniProt P07203); assay: ProtoArray, G9a array SNR minus GST array SNR
[20] = target: HPCAL4, G9a-methylated (human) (UniProt Q9UM19); assay: ProtoArray, G9a array SNR minus GST array SNR
[21] = target: TTC27, G9a-methylated (human) (UniProt Q6P3X3); assay: ProtoArray, G9a array SNR minus GST array SNR
[22] = target: GNPTAB, G9a-methylated (human) (UniProt Q3T906); assay: ProtoArray, G9a array SNR minus GST array SNR
[23] = target: DNTT, G9a-methylated (human) (UniProt P04053); assay: ProtoArray, G9a array SNR minus GST array SNR
[24] = target: CDKL5, G9a-methylated (human) (UniProt O76039); assay: ProtoArray, G9a array SNR minus GST array SNR
CDKL5, G9a-methylated (human), sequence (O76039 other isoform, or with tags, fused parts or gaps limits assumed): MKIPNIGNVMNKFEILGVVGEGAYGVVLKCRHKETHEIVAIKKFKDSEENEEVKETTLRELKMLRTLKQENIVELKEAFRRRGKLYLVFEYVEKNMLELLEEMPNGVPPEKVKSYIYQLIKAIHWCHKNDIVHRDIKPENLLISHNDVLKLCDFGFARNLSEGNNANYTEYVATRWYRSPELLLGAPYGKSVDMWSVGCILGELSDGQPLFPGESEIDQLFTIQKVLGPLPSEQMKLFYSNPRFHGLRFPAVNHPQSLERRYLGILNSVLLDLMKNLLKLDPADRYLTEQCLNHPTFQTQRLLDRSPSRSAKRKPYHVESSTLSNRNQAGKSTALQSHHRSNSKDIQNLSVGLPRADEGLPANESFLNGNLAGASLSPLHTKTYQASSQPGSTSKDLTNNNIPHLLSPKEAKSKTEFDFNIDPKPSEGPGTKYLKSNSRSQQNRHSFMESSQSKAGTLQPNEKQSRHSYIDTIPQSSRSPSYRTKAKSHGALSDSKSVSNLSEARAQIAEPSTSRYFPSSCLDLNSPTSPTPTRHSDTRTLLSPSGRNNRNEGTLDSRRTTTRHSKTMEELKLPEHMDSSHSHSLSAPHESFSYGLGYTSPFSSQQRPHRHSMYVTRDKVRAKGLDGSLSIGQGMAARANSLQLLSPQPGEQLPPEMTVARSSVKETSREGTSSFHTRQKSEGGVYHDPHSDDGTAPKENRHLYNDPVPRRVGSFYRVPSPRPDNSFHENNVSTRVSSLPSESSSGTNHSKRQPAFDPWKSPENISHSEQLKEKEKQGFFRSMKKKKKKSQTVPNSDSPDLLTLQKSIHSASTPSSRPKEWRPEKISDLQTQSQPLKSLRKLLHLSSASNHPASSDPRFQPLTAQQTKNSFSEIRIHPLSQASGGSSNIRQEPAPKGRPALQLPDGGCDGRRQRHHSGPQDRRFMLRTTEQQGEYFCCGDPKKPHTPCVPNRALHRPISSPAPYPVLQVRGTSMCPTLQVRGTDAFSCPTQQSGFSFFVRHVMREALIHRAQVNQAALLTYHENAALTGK

[25] = target: CMTM3, G9a-methylated (human) (UniProt Q96MX0); assay: ProtoArray, G9a array SNR minus GST array SNR
[26] = target: CDC2, G9a-methylated (human) (UniProt P06493); assay: ProtoArray, G9a array SNR minus GST array SNR
CDC2, G9a-methylated (human), sequence (P06493 whole entry): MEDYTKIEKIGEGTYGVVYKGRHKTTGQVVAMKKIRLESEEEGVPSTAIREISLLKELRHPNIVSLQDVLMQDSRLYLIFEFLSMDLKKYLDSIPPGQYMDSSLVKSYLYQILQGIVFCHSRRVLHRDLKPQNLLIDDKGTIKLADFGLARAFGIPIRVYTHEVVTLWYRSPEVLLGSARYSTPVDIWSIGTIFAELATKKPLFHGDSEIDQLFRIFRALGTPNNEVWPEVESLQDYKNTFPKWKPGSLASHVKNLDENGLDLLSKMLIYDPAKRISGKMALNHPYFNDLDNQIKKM

[27] = target: LRRC20, G9a-methylated (human) (UniProt Q8TCA0); assay: ProtoArray, G9a array SNR minus GST array SNR
LRRC20, G9a-methylated (human), sequence (Q8TCA0 whole entry): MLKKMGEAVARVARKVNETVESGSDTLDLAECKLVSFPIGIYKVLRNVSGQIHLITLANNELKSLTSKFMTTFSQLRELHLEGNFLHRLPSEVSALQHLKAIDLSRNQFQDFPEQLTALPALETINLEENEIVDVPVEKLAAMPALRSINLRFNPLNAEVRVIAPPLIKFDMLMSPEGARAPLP

[28] = target: FKBP14, G9a-methylated (human) (UniProt Q9NWM8); assay: ProtoArray, G9a array SNR minus GST array SNR
[29] = target: CNTD1, G9a-methylated (human) (UniProt Q8N815); assay: ProtoArray, G9a array SNR minus GST array SNR
[30] = target: LYRM7, G9a-methylated (human) (UniProt Q5U5X0); assay: ProtoArray, G9a array SNR minus GST array SNR
[31] = target: Magmas, G9a-methylated (human) (UniProt Q9Y3D7); assay: ProtoArray, G9a array SNR minus GST array SNR
Magmas, G9a-methylated (human), sequence (Q9Y3D7 whole entry): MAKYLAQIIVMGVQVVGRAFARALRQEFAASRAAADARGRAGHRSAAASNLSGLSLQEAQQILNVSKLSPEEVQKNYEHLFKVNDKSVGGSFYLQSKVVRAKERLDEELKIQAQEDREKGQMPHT

[32] = target: SMYD5, G9a-methylated (human) (UniProt Q6GMV2); assay: ProtoArray, G9a array SNR minus GST array SNR
[33] = target: RPL14, G9a-methylated (human) (UniProt P50914); assay: ProtoArray, G9a array SNR minus GST array SNR
[34] = target: C1QTNF6, G9a-methylated (human) (UniProt Q9BXI9); assay: ProtoArray, G9a array SNR minus GST array SNR
C1QTNF6, G9a-methylated (human), sequence (Q9BXI9 47-278 limits assumed): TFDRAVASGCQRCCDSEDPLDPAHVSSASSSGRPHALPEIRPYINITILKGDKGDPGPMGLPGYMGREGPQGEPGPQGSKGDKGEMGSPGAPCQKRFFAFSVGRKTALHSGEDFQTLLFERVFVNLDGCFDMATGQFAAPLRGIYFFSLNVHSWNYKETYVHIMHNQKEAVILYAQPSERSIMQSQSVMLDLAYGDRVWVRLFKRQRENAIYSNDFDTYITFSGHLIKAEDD

[35] = target: MRPL21, G9a-methylated (human) (UniProt Q7Z2W9); assay: ProtoArray, G9a array SNR minus GST array SNR
[36] = target: KIFC1, G9a-methylated (human) (UniProt Q9BW19); assay: ProtoArray, G9a array SNR minus GST array SNR
[37] = target: DGKA, G9a-methylated (human) (UniProt P23743); assay: ProtoArray, G9a array SNR minus GST array SNR
[38] = target: CRB3, G9a-methylated (human) (UniProt Q9BUF7); assay: ProtoArray, G9a array SNR minus GST array SNR
CRB3, G9a-methylated (human), sequence (Q9BUF7 27-120 limits assumed): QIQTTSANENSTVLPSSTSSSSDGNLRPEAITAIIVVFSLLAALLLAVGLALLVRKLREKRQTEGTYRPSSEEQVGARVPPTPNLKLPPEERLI

[39] = target: FTL, G9a-methylated (human) (UniProt P02792); assay: ProtoArray, G9a array SNR minus GST array SNR
[40] = target: TMEM97, G9a-methylated (human) (UniProt Q5BJF2); assay: ProtoArray, G9a array SNR minus GST array SNR
[41] = target: LYPLAL1, G9a-methylated (human) (UniProt Q5VWZ2); assay: ProtoArray, G9a array SNR minus GST array SNR
[42] = target: STK17B, G9a-methylated (human) (UniProt O94768); assay: ProtoArray, G9a array SNR minus GST array SNR
STK17B, G9a-methylated (human), sequence (O94768 whole entry): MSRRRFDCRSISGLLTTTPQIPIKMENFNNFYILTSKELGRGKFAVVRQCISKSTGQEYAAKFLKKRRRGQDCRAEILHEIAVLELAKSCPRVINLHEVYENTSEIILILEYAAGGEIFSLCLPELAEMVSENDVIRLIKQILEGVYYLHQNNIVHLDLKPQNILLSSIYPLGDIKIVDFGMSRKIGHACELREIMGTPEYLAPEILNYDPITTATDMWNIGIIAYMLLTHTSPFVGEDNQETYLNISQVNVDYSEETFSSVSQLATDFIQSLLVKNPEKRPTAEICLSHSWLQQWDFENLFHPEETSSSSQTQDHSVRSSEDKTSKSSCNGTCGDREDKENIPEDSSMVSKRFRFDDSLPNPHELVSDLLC

TEAD4, G9a-methylated (human), sequence (Q15561 130-434 limits assumed): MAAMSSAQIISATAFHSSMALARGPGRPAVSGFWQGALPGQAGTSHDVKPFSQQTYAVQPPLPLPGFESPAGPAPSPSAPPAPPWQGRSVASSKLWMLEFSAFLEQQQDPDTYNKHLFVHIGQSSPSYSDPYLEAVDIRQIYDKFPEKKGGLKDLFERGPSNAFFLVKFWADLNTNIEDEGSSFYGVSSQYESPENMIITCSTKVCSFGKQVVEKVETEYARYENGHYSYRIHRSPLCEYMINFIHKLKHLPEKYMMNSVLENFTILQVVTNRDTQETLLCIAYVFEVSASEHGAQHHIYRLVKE

**Q.** With 3× Flag-3×MBT (designed binder) as the substance, how does the G9a Average SNR [1] read?
**A.** 12.7

**Q.** What about the G9a Average SNR [2] of the same substance?
**A.** 16.9

**Q.** And the G9a Average SNR [3]?
**A.** 14.7

**Q.** What about the G9a Average SNR [4] of the same substance?
**A.** 37.2

**Q.** And the G9a Average SNR [5]?
**A.** 17.2

**Q.** What about the G9a Average SNR [6] of the same substance?
**A.** 21.5

**Q.** What about the G9a Average SNR [7] of the same substance?
**A.** 20.3

**Q.** And the G9a Average SNR [8]?
**A.** 14.6

**Q.** And the G9a Average SNR [9]?
**A.** 20.7

**Q.** And the G9a Average SNR [10]?
**A.** 18.6

**Q.** And the G9a Average SNR [11]?
**A.** 14.1

**Q.** What about the G9a Average SNR [12] of the same substance?
**A.** 19.4

**Q.** And the G9a Average SNR [13]?
**A.** 15.5

**Q.** What about the G9a Average SNR [14] of the same substance?
**A.** 24.5

**Q.** And the G9a-GST [15]?
**A.** 20

**Q.** And the G9a-GST [16]?
**A.** 16.1

**Q.** What about the G9a-GST [17] of the same substance?
**A.** 13.4

**Q.** And the G9a-GST [18]?
**A.** 13.7

**Q.** What about the G9a-GST [19] of the same substance?
**A.** 14.5

**Q.** And the G9a-GST [20]?
**A.** 12.3

**Q.** And the G9a-GST [21]?
**A.** 20.2

**Q.** What about the G9a-GST [22] of the same substance?
**A.** 15.3

**Q.** What about the G9a-GST [23] of the same substance?
**A.** 49.5

**Q.** What about the G9a-GST [24] of the same substance?
**A.** 18.3

**Q.** What about the G9a-GST [25] of the same substance?
**A.** 13.7

**Q.** And the G9a-GST [26]?
**A.** 26

**Q.** What about the G9a-GST [27] of the same substance?
**A.** 30.9

**Q.** And the G9a-GST [28]?
**A.** 13.7

**Q.** And the G9a-GST [29]?
**A.** 12.2

**Q.** What about the G9a-GST [30] of the same substance?
**A.** 16.9

**Q.** What about the G9a-GST [31] of the same substance?
**A.** 15.1

**Q.** And the G9a-GST [32]?
**A.** 19.5

**Q.** What about the G9a-GST [33] of the same substance?
**A.** 17.7

**Q.** What about the G9a-GST [34] of the same substance?
**A.** 16.8

**Q.** And the G9a-GST [35]?
**A.** 21.9

**Q.** What about the G9a-GST [36] of the same substance?
**A.** 62.4

**Q.** And the G9a-GST [37]?
**A.** 14.3

**Q.** What about the G9a-GST [38] of the same substance?
**A.** 15.5

**Q.** And the G9a-GST [39]?
**A.** 33.5

**Q.** And the G9a-GST [40]?
**A.** 22.8

**Q.** What about the G9a-GST [41] of the same substance?
**A.** 15.6

**Q.** What about the G9a-GST [42] of the same substance?
**A.** 13.8
